Data: the DeepSol protein solubility set

assay: soluble on expression in E. coli; label from the status in PepcDB or PDB records

Sequence | soluble on expression in E. coli
MEASKEFPGFPNDFHAFEVSPIPFDINSKELSLKNHSNRAILFKVKCTNNKRIRIEECSDILKPGNETTATIKKLVDTVDGDSLYVIYTLVGKEWHNERMSAWRCWERAKKQAVPTQCISVPIKRSSECEKKEKKYEKEKTKSED | soluble
MEASSSAQAKIADMREKLGREVRVFETSSISQRPSQVSSADDESDDFYEFTPADFYRLLATKKEDKSLKTRKIREAEEAARRSKLTKAVIRVRFPDNHTLEATFHPSEKIQGLIDLVKRVVAHPDVPFYLYTTPPKKQIKDFSQDFYSAGFVPGAIVYFSNDQPKDDGGSSTPYLNEEILSLKDLEAMTKAVEPVESSSEPATVDSSAVPVEHERKSTEKKTTKPKWFKM | soluble
MEAVRPDSCESGPAAPRAEERPAPEARVHFRVTRFIMEAGVKLGMQSIPIATACTIYHKFFCEINLDAYDLYLVAMSSIYLAGKVEEQHLRTRDIINVSHRYFNPGSEPLELDSRFWELRDSIVQCELLMLRVLRFQVSFQHPHKYLLHYLISLKNWLNRYSWQRTPISVTAWALLRDSYHGGLCLRFQAQHLAVAVLYLALQVYGVEVPAEGEAEKPWWQVFSDDLTKPIIDNIVSDLIQIYTMDTEIP | not soluble
MEAWKKKKGLFKGARYQCTLEPIEREVLGNLAANISEVLISRAQSAPKDELAELTGMGGGHTEAPEDPGLARLLPDFEMQGDEEFDGDNSLLRSLHENDITRAKLANLQTIGQALGPDGSVFVTVTEEEAQAWVAGLNDIRLYLASSEVQDTEDRDALVEWLAFAQESLLTAMMGSLD | not soluble
MEAYNVQNLYQCLNCDDYHLCNGSLNCDPLVDREGIVCTVTGKYIQCNVRELEHHHHHH | soluble
MEDEIRKAAEILAKSKHAVVFTGAGISAESGIPTFRGEDGLWRKYDPEEVASISGFKRNPRAFWEFSMEMKDKLFAEPNPAHYAIAELERMGIVKAVITQNIDMLHQRAGSRRVLELHGSMDKLDCLDCHETYDWSEFVEDFNKGEIPRCRKCGSYYVKPRVVLFGEPLPQRTLFEAIEEAKHCDAFMVVGSSLVVYPAAELPYIAKKAGAKMIIVNAEPTMADPIFDVKIIGKAGEVLPKIVEEVKRLRSEK | soluble
MEDLEEDVRFIVDETLDFGGLSPSDSREEEDITVLVTPEKPLRRGLSHRSDPNAVAPAPQGVRLSLGPLSPEKLEEILDEANRLAAQLEQCALQDRESAGEGLGPRRVKPSPRRETFVLKDSPVRDLLPTVNSLTRSTPSPSSLTPRLRSNDRKGSVRALRATSGKRPSNMKRESPTCNLFPASKSPASSPLTRSTPPVRGRAGPSGRAAASPPTPIRSVLAPQPSTSNSQRLPRPQGAAAKSSSQLPIPSAIPRPASRMPLTSRSVPPGRGALPPDSLSTRKGLPRPSTAGHRVRESGHKVPVSQRLNLPVMGATRSNLQPPRKVAVPGPTR | soluble
MEDRNITEEDRVCPQLPEFDEQANVQTDLKKMKPGDAIGKNWKVVKAIQSDKGFNTIYVAEHVQKKKKMAAVKVERKTEAIKMLQFELFVLLTVEKKNQCKQFCKLFEKGNEKEYNWIAITLCGKSLRALRKNQPTGKLTVACGLSVAQQCLKGLEELHRMGFIHRNVAPSVFAIGRYTGDNQSDLRNIYILDFGFAHQYMIKDGTLKPPSAHPWKYVGSLRHMPRAAYSKVEFSRMEDLEMWFYMSVELVKGCLPWAHLKKPKEVHDYQKLCRNGLQMREMLGGLPPEFVDIMQIVDKLSFTDTPNYTEIYGLLTNAILFSGKNEFPYDWEEAEINEFKNPQKPSVEQAT | not soluble
MEDTIPAMPQWDKIIYNVLHGSTMKGITSLKKTSVWNEATPVCRESNREAIRRRFTRGLLGRLLQRTPLESCTPVFLPAAQSWPTLEMVPAGALLPGLSEGGEGAKNGSVTTGFFEFTESLPAVGLQRVLPVLPKSAWA | not soluble
MEDVWLQAQSNLAKVLTHQTFTTWIEPIRFAGAHKNTLLLEAPNQFIRDRVRESYLPMILESVRSLTDSHFQVELQVAARQQEKTAKSPRKSHTEDELGPVESEKCAPAEFSTNLNAKYTFDTFVCGGSNQFAHAAALSVANNPAGKYNPLFIYGGVGLGKTHLLTAIGNQVLTKNRKARVCFYTSEKFMNELINCLRYQKMEQFRNKFRKMDLLLIDDIQFIAGKERTQEEFFHTFNALYESHKQIVVTSDKFPKDIPGLEERLRSRFEWGLIADIQPPDTETKVAILSKKADSDGIRLPDDVALFLASSASTNVRELEGMLIRLGAVASLTGKNITLDMAREVLKDIIVDKTKEVTVEMIQKYVADHFNIKVAELKSDKRLKALVVPRQIAIYLCRDLTKASYPDIGEKFGGKDHSTIIHSVKKVDKLLSQDFELKSTIETLRKGLLNLEHHHHHH | soluble
MEEELRVRLNDHQVSKVFPVKPKSTANVVAVMEELVARRKLMKCVSNMEEGELGMLLGFLQRYCTVQRYSGLLMGLTKKVLETRAEDIKGKNEFKGLLRNLKREVNQEIRIQQSLLEIQGVIAPLMRIAGRS | not soluble
MEEIIKPVSKELLKAELTEDRRLRMTNKSNNQIYIITHQNAPNVMREIGRLREIAFRAAGGGTGLSMDIDEYDTMEHPYKQLIVWNPEAEEILGGYRYLLGTDVRFDEAGAPILATSHMFHFSDAFIKEYLPQTIELGRSFVTLEYQSTRAGSKGLFALDNLWDGLGALTVVMPNVKYFFGKVTMYPSYHRRGRDMILYFLKKHFNDREELVTPMEPLILETSDEELRTLFCKDTFKEDYKILNTEIRKLGYNIPPLVNAYMSLSPTMRMFGTAINYEFGDVEETGILIAVDEILEDKRIRHIQTFIESHPDALKMPCESEGVFTPKVVTPQEGCCH | not soluble
MEEKFDVVIIGAGPAGLFAAYELVEKSNLKVLIIEEGGDVDQRVCPMYELGYCIGCKPCHIMSGVGGAGGLSDGTVNLRPDIGGDLTELTNDENYSWQLVWEVDQILLRHEAPRNLYKGDPEQIKYWERKAAQAGVKFIPIIQRHIGSDNTPKVIKSIKNYLEKKGVKFLLWTKALEFNKGWVKVRRGKDTFTINARYIIVAPGRGGADWFHEVAKKIGLKARHGPIDVGVRVEVPAIVMEPITSINHDPKFHIYTDTYDDFVRTFCTNPYGFVVEERYDNYVGVNGHSMREKKSNNTNFALLTRIELTEPVEDTTAYGKSIAQLATTIGGGKPIIQRLGDLRRGRRSTWSRIRKSDVEPTLKHVTPGDIAMALPHRVVTNIIEGLERLDKVIPGVASDHTLLYAPEIKYYAMRVEVNELLETNIENVFAAGDGAGLSRDIVNAAATGIMAARGILVKEGLYNLKDFKKPGNWKEKIENLEPEYLEHHHHHH | not soluble
MEELIKKAKEYDIDINDLIIDAISRKDPKEAINLRIELAKKYITETEDYLKKGDAVQASEKAYKTAEEIVKALAEKFNIPEYQQALKEGRWYTYWLASAVNRLAKDLGDWVLNGWNSAYILHVWGFHEAKLSTADISEHLRKVKEMLDNVINIIGKLEHHHHHH | soluble
MEESSAAKIQLLKEFKFEKILKDDTKSKIITLYGKIRNEVALLLLEKTAFDLNTIKLDQLATFLQDTKLVENNDVFHWFLSTNFQDCSTLPSVKSTLIWPASETHVYKYSSQKKPMVCETPLMYLKVTKPFIETQRGPQIQWVENILTHKAEAERIVVEDPDPLNGFIVIPDLKWDRQTMSALNLMAIVHATDIASIRDLKYKHIPLLENIRNKVLTEVPKQFSVDKNQLKMFVHYLPSYYHLHVHILHVDHETGDGSAVGRAILLDDVIDRLRNSPDGLENVNITFNIGEQHFLFQPLTNMNA | soluble
MEEVINYRSDLFRLSDNLETLHIEEKFGIKCDLTCKIEENMTTFEFQFDLRDFKNNGFKQLTAEITIRPDPENPIFELIHRKLDILDIDEHRVNFSVENKNTQSLAETRAILELILTPIREKFSYREMFMPSQKTDAILMIGGEKLHVNKAFLSFHSDFFHELFSASSTESEIPEIPIRDVSAEDMGLLLSTIYPDLVFPTDKTAAKLLTLANRFQMRAVTAQVEHHLLWHSDIEIEKLILMANTFGMKDLLKECTCDGGNKTPGEVPISVQ | not soluble
MEFFGESWKKHLSGEFGKPYFIKLMGFVAEERKHYTVYPPPHQVFTWTQMCDIKDVKVVILGQNPYHGPNQAHGLCFSVQRPVPPPPSLENIYKELSTDIEDFVHPGHGDLSGWAKQGVLLLNAVLTVRAHQANSHKERGWEQFTDAVVSWLNQNSNGLVFLLWGSYAQKKGSAIDRKRHHVLQTAHPSPRSVYRGFFGCRHFSKTNELLQKSGKKPIDWKEL | soluble
MEFGVPRERSGGEIPERRVPLTPQGVRELVASGHRVYVERGAGEGAGFPDEAYEEAGARLVGREEAFGRPQVVLKVARPTLEEVGLMRKNAVLMAFLHLAVAESPLVEAMAQKGLTAIGYELVGEEGRRPVLKAMSEIAGRMAPQLAGRLLEAPQGPGILLSGLVGIPPADVVVLGAGVLGRAAARAFLGAGASVHLLDRALPPLEEAAREAPGAITALVTQDRLERYVAFADVLVGAVAVPGERTPLLLTRGLLARMRPGSVLLDFSIDQGGVSETSRPGVYQEMGVTHFCLPNVPALVPRTASHALTLTLLPYLLRIQEDPLALPGLRQGAYLLFGEKGGHLE | soluble
MEFYMKAFNKLFSLVVASVLVFSLAGCGDKEESKKFSANLNGTEIAITYVYKGDKVLKQSSETKIQFASIGATTKEDAAKTLEPLSAKYKNIAGVEEKLTYTDTYAQENVTIDMEKVDFKALQGISGINVSAEDAKKGITMAQMELVMKAAGFKEVK | not soluble
MEGCVSNIMICNLAYSGKLDELKERILADKSLATRTDQDSRTALHWACSAGHTEIVEFLLQLGVPVNDKDDAGWSPLHIAASAGRDEIVKALLVKGAHVNAVNQNGCTPLHYAASKNRHEIAVMLLEGGANPDAKDHYDATAMHRAAAKGNLKMVHILLFYKASTNIQDTEGNTPLHLACDEERVEEAKFLVTQGASIYIENKEEKTPLQVAKGGLGLILKRLAEGEEASM | soluble
MEGLARVFLIGGASKAVRYDEQTTIERVIHVVARGIGISQVAVAHFALRLVTGPSPQTAGSGDSLWLHPMLRITQLPHIYARHLPIGVCDEIKLEMRMRFMPQSVYELQATDSSAFVYLHEQVVDEFFSHVAWRSSVEVALEVAALKVCRDFAEHQHNKGADHHLEDLDIEACIQSLIPNVLHNPGFKHSHLKKTFTAYIKKFSATSPNESIIRSLALLLEVVKFDVELFKASLGAGWTKPVELVVGPHTGLSYRLNERCDSSRLLELRTIAEITIRKMENGSEKTLMQLNLSGAAKPVLITLSTEELSQSLAHLLDGYQMLYNQRDSVFKLKGIERCETLTMHEATIRPKTPNNIDSNIRLRRELITLKELIGGGQFGNVYKAVYHDLEKDERIAVAVKVCKTDAEPADTQLILQESSLMRNFRHSNIIQLIGVCVDQPMWLVLELAPKGELREYLQQEKDWLPLRILTLFCSQICDSLVYLHSTRFVHRDIAARNILVCSPQCVKLADFGLSRALDYDAVYTASRGKLPIKWLAPESVNYRQFSMASDVWMFGVCMWEIFSLGVKPWAGVTNSDVIMHIEQGSRPPCPEKCPTALYNFIRSKMWAIEPHKRPTVDQIYAIIEDVRQQIIQNIPPEQIIVGKPMTAAGVIVAEMSSLPGLTLYRTMEDQKRQAEEDAKWLEQEDDEDEDDQDIDQIPSTSHSSVENIRTSNGYLHHTPTSTRSLRFEDKTSRGLRRSVDGVCDAVTKLQNSFNNLTHNDDFLHSVKEVTSQLREMLIVASGMRDRVTTTTQRTDVDMTKTLIANDMKQMSRVMGKLQVNGHQATYNTLRRDVVRICGELAVNCTTLQLQLTQPPLENEFSSLLSNC | not soluble
MEGNFSNRVQDVIRLSREEALRLGHDYIGTEHLLLGLIREGEGIGAKILKNLKVDLFQLKQKIEENTHPKVPATQMGNVPLTKQAEKVLKITYLEAKICKSTIIGTEHLLLSILKGDDNIAAQILEQFGVTYDQVRDELMTITT | not soluble
